The values that follow come from PMC13043311, “2′-O-Methyl-guanosine RNA fragments antagonize TLR7 and TLR8 to limit autoimmunity”.

Substitutions are numbered along the chain they refer to.

Data set [1] addresses T1, TLR7 F506L (Macaca mulatta, UniProt B3Y653 27-839, F506L).
T1 sequence: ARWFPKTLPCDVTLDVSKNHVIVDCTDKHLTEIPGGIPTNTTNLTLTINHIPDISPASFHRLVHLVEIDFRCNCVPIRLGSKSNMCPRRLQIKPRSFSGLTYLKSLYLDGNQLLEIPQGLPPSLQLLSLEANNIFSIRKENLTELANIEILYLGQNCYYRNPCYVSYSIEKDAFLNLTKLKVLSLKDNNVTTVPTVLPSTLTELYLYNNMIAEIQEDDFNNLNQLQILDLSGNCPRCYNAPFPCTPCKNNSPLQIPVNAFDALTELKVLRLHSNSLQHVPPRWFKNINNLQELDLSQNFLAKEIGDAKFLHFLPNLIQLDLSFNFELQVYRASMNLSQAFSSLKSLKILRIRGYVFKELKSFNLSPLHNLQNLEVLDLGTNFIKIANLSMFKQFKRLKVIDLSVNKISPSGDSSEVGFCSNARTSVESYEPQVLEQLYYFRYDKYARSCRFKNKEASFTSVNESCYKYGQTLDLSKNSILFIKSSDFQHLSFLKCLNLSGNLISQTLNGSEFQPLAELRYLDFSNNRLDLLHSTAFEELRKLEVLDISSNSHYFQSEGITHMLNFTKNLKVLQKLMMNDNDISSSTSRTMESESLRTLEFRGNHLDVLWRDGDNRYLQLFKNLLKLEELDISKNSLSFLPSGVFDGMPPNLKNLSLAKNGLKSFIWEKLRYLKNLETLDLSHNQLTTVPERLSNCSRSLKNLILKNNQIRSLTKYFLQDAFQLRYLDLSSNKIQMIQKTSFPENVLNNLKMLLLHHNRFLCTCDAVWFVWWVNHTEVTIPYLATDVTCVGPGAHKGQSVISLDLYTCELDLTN
As to the kind of experiment: SPR; mean computed from runs 4±0.5, 5±0.6, 5±2; SPR with recombinant TLR7/TLR8; buffer, pH and temperature not in the material. The following applies: protein: recombinant; chain copies: 2; single-stranded.

Data set [2] deals with T2, TLR7 WT (mmTLR7) (Macaca mulatta, UniProt B3Y653 27-839).
T2 sequence: T1 sequence with L480F
As to the kind of experiment: SPR; control of the nucleoside series; mean computed from runs 1±0.3, 3±0.9, 5±0.8; SPR with recombinant TLR7/TLR8; buffer, pH and temperature not in the material. The following applies: protein: recombinant; chain copies: 2; single-stranded.

B1: mGrUrC PS (XNA)
RNA: GUC
modifications: 2'-OMe G1, RNA U2 C3; phosphorothioate linkages
Consider B1, for which the dissociation constant (Kd) in data set [1] amounted to 4.67 µM; in data set [2] it was 3 µM.
